Paper PMC10583557 (Molecular Biology and Evolution, 2023)

Columns and labels:
[1] = molecular target: T1, C. apon LDH (Cyanobacterium aponinum, UniProt K9Z684); assay: X-ray crystal structure of complex; assay type: binding; conditions: 2 mM each
T1 sequence (K9Z684 1-331): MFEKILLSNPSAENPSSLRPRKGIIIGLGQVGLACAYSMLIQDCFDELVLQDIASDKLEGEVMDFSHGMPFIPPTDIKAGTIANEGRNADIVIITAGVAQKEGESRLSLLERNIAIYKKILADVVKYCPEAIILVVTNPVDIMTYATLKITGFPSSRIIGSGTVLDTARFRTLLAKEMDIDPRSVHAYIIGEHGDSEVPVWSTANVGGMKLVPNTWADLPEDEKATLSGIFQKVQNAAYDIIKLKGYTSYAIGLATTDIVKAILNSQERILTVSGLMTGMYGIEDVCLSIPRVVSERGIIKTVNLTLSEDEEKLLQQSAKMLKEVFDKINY

[2] = molecular target: Y190W C. apon LDH (Cyanobacterium aponinum); assay: AUC
[3] = molecular target: the molecule itself; assay: SEC-MALS

Molecule: NC(=O)C1=CN([C@@H]2O[C@H](COP(=O)(O)OP(=O)(O)OC[C@H]3O[C@@H](n4cnc5c(N)ncnc54)[C@H](O)[C@@H]3O)[C@@H](O)[C@H]2O)C=CC1 [NADH]
- X-ray crystal structure of complex ([1]; cofactor site, with oxamate and FBP): active sites of each monomer occupied with a NADH and an oxamate molecule

Molecule: NC(=O)C(=O)O [oxamate]
- X-ray crystal structure of complex ([1]; active site, substrate analogue, with NADH and FBP): active sites of each monomer occupied with a NADH and an oxamate molecule

Molecule: Y190W C. apon LDH (enzyme)
- stoichiometry N [2]: 4

B1: ΔN-ter C. apon LDH (N-terminal sequence … deleted) (domain or fragment, Cyanobacterium aponinum, UniProt K9Z684 21-331, looked up)
chain: RKGIIIGLGQVGLACAYSMLIQDCFDELVLQDIASDKLEGEVMDFSHGMPFIPPTDIKAGTIANEGRNADIVIITAGVAQKEGESRLSLLERNIAIYKKILADVVKYCPEAIILVVTNPVDIMTYATLKITGFPSSRIIGSGTVLDTARFRTLLAKEMDIDPRSVHAYIIGEHGDSEVPVWSTANVGGMKLVPNTWADLPEDEKATLSGIFQKVQNAAYDIIKLKGYTSYAIGLATTDIVKAILNSQERILTVSGLMTGMYGIEDVCLSIPRVVSERGIIKTVNLTLSEDEEKLLQQSAKMLKEVFDKINY
- stoichiometry N [3]: 2

B2: Cyanobacterium aponinum lactate dehydrogenase, wild type (enzyme)
chain: MFEKILLSNPSAENPSSLRPRKGIIIGLGQVGLACAYSMLIQDCFDELVLQDIASDKLEGEVMDFSHGMPFIPPTDIKAGTIANEGRNADIVIITAGVAQKEGESRLSLLERNIAIYKKILADVVKYCPEAIILVVTNPVDIMTYATLKITGFPSSRIIGSGTVLDTARFRTLLAKEMDIDPRSVHAYIIGEHGDSEVPVWSTANVGGMKLVPNTWADLPEDEKATLSGIFQKVQNAAYDIIKLKGYTSYAIGLATTDIVKAILNSQERILTVSGLMTGMYGIEDVCLSIPRVVSERGIIKTVNLTLSEDEEKLLQQSAKMLKEVFDKINY
- stoichiometry N [3]: 4
